Here are results for 5 molecules from patent publication US20100041597A1 (published 2010).

The target of assay [1] is T1, PKC-ε (endogenous, human cell extracts) (human, UniProt Q02156 1-737).
T1 construct: Two bands on the blot, said to be alternate splicing variants; also called PKC-epsilon; PKC-ε Band 1
T1 sequence (looked up): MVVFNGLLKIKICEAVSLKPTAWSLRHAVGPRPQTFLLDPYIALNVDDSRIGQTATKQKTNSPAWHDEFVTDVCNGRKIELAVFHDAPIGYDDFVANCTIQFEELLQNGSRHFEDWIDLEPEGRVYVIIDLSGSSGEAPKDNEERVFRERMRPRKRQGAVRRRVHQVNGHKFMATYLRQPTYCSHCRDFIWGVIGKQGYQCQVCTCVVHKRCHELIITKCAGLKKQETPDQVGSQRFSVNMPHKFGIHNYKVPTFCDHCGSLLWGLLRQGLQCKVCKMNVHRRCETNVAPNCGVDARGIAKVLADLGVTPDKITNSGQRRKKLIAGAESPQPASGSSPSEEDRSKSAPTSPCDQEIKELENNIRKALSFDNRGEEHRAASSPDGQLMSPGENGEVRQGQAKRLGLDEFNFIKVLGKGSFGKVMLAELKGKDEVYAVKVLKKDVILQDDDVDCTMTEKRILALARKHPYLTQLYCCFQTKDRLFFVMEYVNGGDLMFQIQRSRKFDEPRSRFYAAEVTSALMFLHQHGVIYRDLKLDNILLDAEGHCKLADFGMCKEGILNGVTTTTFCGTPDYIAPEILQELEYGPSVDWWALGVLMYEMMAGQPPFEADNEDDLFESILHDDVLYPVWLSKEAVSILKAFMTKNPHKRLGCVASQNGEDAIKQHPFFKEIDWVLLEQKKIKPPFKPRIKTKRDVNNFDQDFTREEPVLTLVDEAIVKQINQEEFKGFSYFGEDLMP
Briefly: Protocol B blot competition, IMR-32 extract, competitor anti-PKC-ε Ab, Band 1; PRE 50 µg. The protocol: (§1) The ability of the peptides PRE 2 and PRE 3 (see Table 3) to interfere with the binding of a PKC-α-specific polyclonal antibody (Santa Cruz Biotechnology, Inc.) to PKC-α was determined using a modified version of the protocol outlined above in which the test peptide was added directly to the cell extract prior to electrophoresis at a concentration of either 5× or 15× the concentration of the protein applied to each well of the gel for the Western blots (20 μg).
(§2) Peptides PRE 2, PRE 3 and PRE 4 (see Table 3) were tested for their ability to interfere with the binding of isoform-specific polyclonal antibodies (Santa Cruz Biotechnology, Inc.) to PKC-ε using the general protocol described in Example 3. Two bands, representing alternate splicing variants of PKC-ε, were identified on the Western blot using this anti-PKC-ε antibody.

The target of assay [2] is T1, PKC-ε (endogenous, human cell extracts). In words: Protocol B blot competition, IMR-32 extract, competitor anti-PKC-ε Ab, Band 1; PRE 20 µg. The protocol:
as §1, §2

Assay [3] has the same target. In words: Protocol B blot competition, IMR-32 extract, competitor anti-PKC-ε Ab, Band 2; PRE 20 µg. The protocol:
as §1, §2

Assay [4] has the same target. In words: Protocol B blot competition, IMR-32 extract, competitor anti-PKC-ε Ab, Band 1; PRE 100 µg. The protocol:
as §1, §2

Assay [5] deals with T2, PKC-ζ (endogenous, human cell extracts) (human, UniProt Q05513 1-592).
T2 construct: also called PKC-zeta
T2 sequence (looked up): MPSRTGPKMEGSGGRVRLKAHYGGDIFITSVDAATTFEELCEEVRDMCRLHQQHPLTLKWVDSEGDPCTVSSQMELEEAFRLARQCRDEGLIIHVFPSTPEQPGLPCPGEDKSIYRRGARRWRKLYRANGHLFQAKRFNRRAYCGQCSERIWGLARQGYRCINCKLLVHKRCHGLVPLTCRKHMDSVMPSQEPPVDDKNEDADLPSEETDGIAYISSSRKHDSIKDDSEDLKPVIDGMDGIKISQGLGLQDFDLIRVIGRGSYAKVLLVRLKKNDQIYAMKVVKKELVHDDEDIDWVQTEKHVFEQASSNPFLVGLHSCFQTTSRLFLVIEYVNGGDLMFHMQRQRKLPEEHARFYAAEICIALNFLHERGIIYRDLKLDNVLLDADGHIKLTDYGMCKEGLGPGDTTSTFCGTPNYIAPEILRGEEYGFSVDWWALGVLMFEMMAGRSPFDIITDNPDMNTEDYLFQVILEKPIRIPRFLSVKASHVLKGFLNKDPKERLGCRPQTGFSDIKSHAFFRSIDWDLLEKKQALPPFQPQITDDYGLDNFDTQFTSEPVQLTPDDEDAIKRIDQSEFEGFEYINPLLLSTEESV
Briefly: Western-blot competition on cell extracts against the anti-PKC-ζ primary antibody; band densitometry. The protocol: Binding efficiency and specificity of the peptides PRE 2, 3, 4, 5, 6, 7, 8, 9, 10, 11, 12 and 13 (see Table 3) was also tested using cytoplasmic extracts from different cell lines expressing appropriate PKC isoforms as described for Example 1. Briefly, the protein cytoplasmic extracts were separated by electrophoresis and transferred onto nitrocellulose membranes by standard Western blotting procedures. The bands on the Western blots were detected with matching primary antibodies and alkaline phosphatase conjugated secondary antibody. The bands were then scanned and the relative density measurements obtained.
This procedure to assess the binding characteristics of the PREs is based on competition binding of the PRE with the primary anti-isoform PKC specific antibodies. The lower the measured band density, the greater the binding of the PRE to the PKC isoform. The PREs were added at 10 and 20 times (10×, 20×) the primary antibody concentration, according to classical competition between antigenic peptide and primary antibody. The following cell lines (obtained from the ATCC) were used: H661—NCI human lung carcinoma NSCLC; MDAMB231—human highly invasive breast cancer cell line from pleural effusion; LS180—human colon adenocarcinoma; LnCAP—human prostate adenocarcinoma; CCD16Lu—human lung fibroblasts; Du145—human prostate carcinoma brain metastasis, and T24—human bladder carcinoma.

Assay [6] deals with T3, PKC-βII (purified isoform) (Homo sapiens (Human), UniProt P05771 2-621).
T3 construct: also called PKC-beta II
In words: summary grade, purified isoform ELISA. In general terms: ELISA stands for enzyme-linked immunosorbent assay.

Assay [7] concerns the target T4, PKC-βI (purified isoform) (Homo sapiens (Human), UniProt P05771 2-671).
T4 construct: also called PKC-beta I
In words: summary grade, purified isoform ELISA.

The target of assay [8] is T5, PKC-ε (purified isoform) (Homo sapiens (Human), UniProt Q02156 1-737).
T5 construct: also called PKC-epsilon; PKCepsilon
T5 sequence: T1 sequence (looked up)
Briefly: summary grade, purified isoform ELISA.

T4 sequence (P05771 2-671 limits assumed): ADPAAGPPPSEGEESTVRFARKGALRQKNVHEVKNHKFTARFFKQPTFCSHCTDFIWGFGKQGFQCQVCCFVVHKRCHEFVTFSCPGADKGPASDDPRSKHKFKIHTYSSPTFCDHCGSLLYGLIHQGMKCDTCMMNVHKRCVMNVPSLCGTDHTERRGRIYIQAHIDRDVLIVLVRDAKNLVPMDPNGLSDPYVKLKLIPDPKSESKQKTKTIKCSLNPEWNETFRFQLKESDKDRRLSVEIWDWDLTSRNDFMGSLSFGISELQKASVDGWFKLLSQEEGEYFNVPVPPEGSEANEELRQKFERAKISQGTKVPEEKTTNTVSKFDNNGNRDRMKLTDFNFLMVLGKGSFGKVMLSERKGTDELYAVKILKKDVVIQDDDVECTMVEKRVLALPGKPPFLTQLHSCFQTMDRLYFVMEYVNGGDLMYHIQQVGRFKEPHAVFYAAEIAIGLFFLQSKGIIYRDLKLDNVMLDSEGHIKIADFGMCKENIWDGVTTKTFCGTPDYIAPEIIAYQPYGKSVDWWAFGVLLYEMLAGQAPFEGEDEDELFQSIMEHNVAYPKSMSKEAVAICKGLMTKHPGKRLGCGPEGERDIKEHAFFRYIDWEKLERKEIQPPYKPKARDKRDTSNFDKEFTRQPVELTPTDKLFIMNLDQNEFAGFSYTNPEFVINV
T3 sequence (P05771 other isoform, or with tags, fused parts or gaps limits assumed): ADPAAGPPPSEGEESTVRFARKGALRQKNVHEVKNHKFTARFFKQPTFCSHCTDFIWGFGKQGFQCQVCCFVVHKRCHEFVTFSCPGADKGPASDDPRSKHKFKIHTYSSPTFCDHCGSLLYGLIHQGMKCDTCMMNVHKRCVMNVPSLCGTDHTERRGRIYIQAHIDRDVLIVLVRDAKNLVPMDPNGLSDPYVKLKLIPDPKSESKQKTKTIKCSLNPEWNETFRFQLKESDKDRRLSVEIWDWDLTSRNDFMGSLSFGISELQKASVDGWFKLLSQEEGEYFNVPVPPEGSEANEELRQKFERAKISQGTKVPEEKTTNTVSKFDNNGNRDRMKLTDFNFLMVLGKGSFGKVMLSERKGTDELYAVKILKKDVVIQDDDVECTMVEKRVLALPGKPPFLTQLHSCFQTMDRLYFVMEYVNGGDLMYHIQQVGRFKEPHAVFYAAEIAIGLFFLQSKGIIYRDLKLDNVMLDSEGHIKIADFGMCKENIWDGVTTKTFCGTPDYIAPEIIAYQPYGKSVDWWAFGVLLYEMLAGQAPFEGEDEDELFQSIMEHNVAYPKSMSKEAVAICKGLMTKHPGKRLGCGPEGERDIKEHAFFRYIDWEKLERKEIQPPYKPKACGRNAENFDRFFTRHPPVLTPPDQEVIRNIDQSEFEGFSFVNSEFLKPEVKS

B1: PRE 4 (peptide)
peptide: Ac-KDAQNLIGISI-NH2
notes: Synthetic peptide; also called peptide PRE 4
With B1, the band intensity amounted to 0 in assay [1], 184 in assay [2], 153 in assay [3] and 0 in assay [4]. Besides, the “inhibition (%)” value in assay [1] turned out to be 100%; in assay [2], 42.9%; in assay [3] it was 46.6%; in assay [4], 100%. For the same molecule, the “relative intensity (%)” value amounted to 0% in assay [1], 57.1% in assay [2], 53.3% in assay [3] and 0% in assay [4].

B2: PRE 6 (peptide)
peptide: Ac-KDANQLIGISI-NH2
notes: Synthetic peptide; also called peptide PRE 6
Turning to B2, the binding result in assay [5] is “no binding (tested: 20X the primary antibody concentration)”; in assay [6], “no binding (tested: 200 µM)”.

B3: PRE 12 (peptide)
peptide: Ac-KDAQNLI-NH2
notes: Synthetic peptide; also called peptide PRE 12; Ac-KDAQNLI-NH2
Turning to B3, the binding result in assay [7] and in assay [8] was “no binding (tested: 200 µM)” throughout.

B4: PRE 13 (peptide)
peptide: Ac-RDAQNLI-NH2
notes: Synthetic peptide; also called peptide PRE 13; Ac-RDAQNLI-NH2
As to B4, the binding result in assay [5] is reported as “no binding (tested: 20X the primary antibody concentration)”; in assay [7], “no binding (tested: 200 µM)”; in assay [6], “no binding (tested: 200 µM)”; in assay [8], “no binding (tested: 200 µM)”.

B5: PRE 3 (peptide)
peptide: Ac-AKGIQEVKGGDAQNLIGISI-NH2
notes: Synthetic peptide; also called peptide PRE 3
For B5, the band intensity in assay [1] came out at 0; in assay [2], 5.12; in assay [3] it was 0; in assay [4] it was 0. Besides, the “inhibition (%)” value was determined as 100% in assay [1], 99% in assay [2], 100% in assay [3] and 100% in assay [4]. For the same molecule, the “relative intensity (%)” value in assay [1] is 0%; in assay [2] it was 0.12%; in assay [3], 0%; in assay [4], 0%.
